Laboratory results reported in US20210024620A1.

Columns and labels:
[1] = target: rat FcRn (rat) (UniProt P13599); assay: Octet BLI screen, pH 6.0
[2] = target: rat FcRn (rat) (UniProt P13599); assay: Biacore, pH 6.0
[3] = target: Human CD16a (FcγRIIIa V158) with C-terminal HPC4 tag (human) (UniProt P08637); assay: Biacore SPR, FcγRIIIa-V158 captured, pH 7.4
[4] = target: Human CD16a (FcγRIIIa V158) with C-terminal HPC4 tag (human) (UniProt P08637); assay: Biacore SPR, FcγRIIIa
[5] = target: FcRn immobilised on the FcRn affinity column (biotinylated cynoFcRn in one experiment, biotinylated hFcRn in another); assay: FcRn affinity chromatography, linear pH gradient; species of the immobilised FcRn not given
[6] = target: rat FcRn (rat) (UniProt P13599); assay: Octet BLI, pH 6.0
[7] = target: rat FcRn (rat) (UniProt P13599); assay: Biacore SPR, pH 6.0
[8] = target: rat FcRn (rat) (UniProt P13599); assay: Biacore SPR, pH 7.4
[9] = target: rat FcRn (rat) (UniProt P13599); assay: Biacore SPR, pH 7.4, 1000 nM antibody
[10] = target: rat FcRn (rat) (UniProt P13599); assay: Biacore, pH 6.0, apparent KD
[11] = target: biotinylated human FcRn (p51 subunit residues 24-297 with C-terminal Avi-tag; beta2-microglobulin residues 21-119) (human) (UniProt P55899); assay: Biacore; affinity at pH 6.0 (M^-1) over steady state RU at pH 7.4
Sequence of biotinylated human FcRn (p51 subunit residues 24-297 with C-terminal Avi-tag; beta2-microglobulin residues 21-119) (human) (P55899 24-297 limits assumed, chain 1 of 2): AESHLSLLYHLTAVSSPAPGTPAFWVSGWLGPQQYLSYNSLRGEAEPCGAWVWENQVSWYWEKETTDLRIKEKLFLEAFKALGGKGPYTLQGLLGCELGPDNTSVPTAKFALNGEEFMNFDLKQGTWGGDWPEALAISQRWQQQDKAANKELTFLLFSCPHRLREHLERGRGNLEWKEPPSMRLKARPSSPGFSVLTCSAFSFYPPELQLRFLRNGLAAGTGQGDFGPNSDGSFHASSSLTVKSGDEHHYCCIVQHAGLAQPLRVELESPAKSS
Sequence of biotinylated human FcRn (p51 subunit residues 24-297 with C-terminal Avi-tag; beta2-microglobulin residues 21-119) (human) (P61769 21-119 limits assumed, chain 2 of 2, further chain): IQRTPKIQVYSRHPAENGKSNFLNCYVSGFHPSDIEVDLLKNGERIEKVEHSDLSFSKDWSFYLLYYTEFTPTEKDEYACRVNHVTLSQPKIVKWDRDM

[12] = target: rat FcRn (rat) (UniProt P13599); assay: Biacore, pH 7.4, steady state response
[13] = target: biotinylated human FcRn (human) (UniProt P55899); assay: Biacore, pH 7.4, steady state response
Sequence of biotinylated human FcRn (human) (P55899 24-297 limits assumed, chain 1 of 2): as the sequence (P55899 24-297 limits assumed, chain 1 of 2) above
Sequence of biotinylated human FcRn (human) (P61769 21-119 limits assumed, chain 2 of 2, further chain): as the sequence (P61769 21-119 limits assumed, chain 2 of 2, further chain) above

[14] = target: biotinylated human FcRn (human) (UniProt P55899); assay: Biacore SPR, pH 6.0
[15] = target: biotinylated human FcRn (human) (UniProt P55899); assay: Biacore, pH 6.0
[16] = target: biotinylated human FcRn (human) (UniProt P55899); assay: Biacore SPR, pH 7.4
[17] = target: biotinylated human FcRn (p51 subunit residues 24-297 with C-terminal Avi-tag; beta2-microglobulin residues 21-119) (human) (UniProt P55899); assay: Biacore SPR, pH 6.0
[18] = target: biotinylated human FcRn (human) (UniProt P55899); assay: Biacore SPR, pH 6.0; remark: listed apart in the source
[19] = target: biotinylated human FcRn (human) (UniProt P55899); assay: Biacore SPR, pH 7.4; remark: listed apart in the source
[20] = target: biotinylated human FcRn (human) (UniProt P55899); assay: Biacore SPR, pH 7.4, 1000 nM antibody
[21] = target: Human CD16a (FcγRIIIa V158) with C-terminal HPC4 tag (human) (UniProt P08637); assay: Biacore, FcγRIIIa V158 captured, steady-state fit, apparent KD
[22] = target: biotinylated human FcRn (p51 subunit residues 24-297 with C-terminal Avi-tag; beta2-microglobulin residues 21-119) (human) (UniProt P55899); assay: Biacore SPR, pH 7.4, steady state
[23] = target: biotinylated human FcRn (human) (UniProt P55899); assay: Biacore, pH 6.0, apparent KD
[24] = target: biotinylated human FcRn (p51 subunit residues 24-297 with C-terminal Avi-tag; beta2-microglobulin residues 21-119) (human) (UniProt P55899); assay: Biacore; inverse ratio (RU at pH 7.4 over affinity at pH 6.0)
[25] = target: rat FcRn (rat) (UniProt P13599); assay: Biacore SPR, pH 6.0; remark: listed apart in the source

Sequence of Human CD16a (FcγRIIIa V158) with C-terminal HPC4 tag (human) (P08637 17-208 F176V): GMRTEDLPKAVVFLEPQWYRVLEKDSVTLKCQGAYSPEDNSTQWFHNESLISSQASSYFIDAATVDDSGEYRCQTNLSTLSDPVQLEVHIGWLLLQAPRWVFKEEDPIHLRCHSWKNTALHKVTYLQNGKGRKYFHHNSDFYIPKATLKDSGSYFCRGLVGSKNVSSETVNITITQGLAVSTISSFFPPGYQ
Sequence of rat FcRn (rat) (P13599 23-298 limits assumed, chain 1 of 2): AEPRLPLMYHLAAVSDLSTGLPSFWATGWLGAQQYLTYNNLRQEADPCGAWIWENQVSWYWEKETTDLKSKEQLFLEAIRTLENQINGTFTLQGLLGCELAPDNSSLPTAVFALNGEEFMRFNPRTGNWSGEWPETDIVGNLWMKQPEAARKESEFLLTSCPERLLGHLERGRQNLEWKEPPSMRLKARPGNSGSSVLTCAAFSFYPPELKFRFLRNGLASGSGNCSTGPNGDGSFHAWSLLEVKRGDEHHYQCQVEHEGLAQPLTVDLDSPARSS
Sequence of rat FcRn (rat) (P07151 21-119 limits assumed, chain 2 of 2, further chain): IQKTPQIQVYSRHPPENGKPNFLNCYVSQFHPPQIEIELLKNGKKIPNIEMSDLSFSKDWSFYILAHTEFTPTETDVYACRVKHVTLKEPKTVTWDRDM

| Substance | koff [2] [s⁻¹] | kon [2] [M⁻¹ s⁻¹] | FcγRIIIa V158 affinity fold change relative to WT [3] [fold] | FcRn affinity column elution pH [5] [pH] | Kd [7] [nM] | koff [7] [s⁻¹] | kon [7] [M⁻¹ s⁻¹] | Steady State RU [8] [RU] | Kd [10] [nM] | Ratio (pH 6.0/pH 7.4) [11] | Steady State RU [12] [RU] | Steady State RU [13] [RU] | koff [15] [s⁻¹] | kon [15] [M⁻¹ s⁻¹] | Ka [17] [M⁻¹] | koff [18] [s⁻¹] | kon [18] [M⁻¹ s⁻¹] | Steady State RU [19] [RU] | Kd [21] [nM] | Steady State Binding, pH 7.4 (RU) [22] [RU] | other results |
| --- | --- | --- | --- | --- | --- | --- | --- | --- | --- | --- | --- | --- | --- | --- | --- | --- | --- | --- | --- | --- | --- |
| mAb1 N434Y (antibody) | 0.0035 | 145000 | 1.41 | 8.46 | 23 | 0.00346 | 145000 | 66 | 23 |  |  |  |  |  |  |  |  |  |  |  | fold slower off-rate vs WT [1]: > 2 fold; enhancement of FcγRIIIa binding vs WT [4]: 16 to 40%; koff [6]: 0.00133 s⁻¹; Steady State RU [9]: 47 RU |
| mAb1 YTE (M252Y/S254T/T256E) (antibody) | 0.0012 | 65000 | 0.52 | 8.14 | 18 | 0.00121 | 65200 | 53.9 | 18 | 221000 | 53.9 | 13.2 | 0.05 | 143000 | 2.92e+06 | 0.045 | 143000 | 13.2 | 1040 | 13.2 | Kd [14]: 342 nM; koff [14]: 0.047 s⁻¹; kon [14]: 140000 M⁻¹ s⁻¹; Steady State RU [16]: 13.1 RU; reduction in binding response vs wildtype [4]: 50%; koff [6]: 0.00066 s⁻¹; Steady State RU [9]: 53.9 RU; Steady State RU [20]: 13.2 RU; Kd [23]: 342 nM |
| mAb1 LS (M428L/N434S) (antibody) | 0.0066 | 91000 | 1.04 | 8.29 | 74 | 0.00658 | 90800 | 24.8 | 74 | 201000 | 24.8 | 18.3 | 0.05 | 193000 | 3.68e+06 | 0.052 | 193000 | 18.3 | 369 | 18.3 | Kd [14]: 272 nM; koff [14]: 0.05 s⁻¹; kon [14]: 190000 M⁻¹ s⁻¹; Steady State RU [16]: 18.5 RU; Ratio (pH 6.0/pH 7.4) [24]: 4.97e-06; koff [6]: 0.00338 s⁻¹; Steady State RU [9]: 24.8 RU; Steady State RU [20]: 18.3 RU; Kd [23]: 272 nM |
| mAb1 AAA (T307A/E380A/N434A) (antibody; other documents disagree on this pair) |  |  |  |  |  |  |  |  |  | 40400 |  | 13.9 | 0.14 | 84000 | 562000 | 0.144 | 83700 |  |  | 13.9 | Steady State RU [16]: 13.1 RU; Ratio (pH 6.0/pH 7.4) [24]: 2.47e-05; Kd [18]: 1780 nM; Steady State RU [20]: 13.9 RU; Kd [23]: 1780 nM |
| mAb1 YDTN (M252Y/T256D) (antibody) |  |  |  | 8.29 | 5.86 |  |  | 56 | 5.9 |  | 56 | 9.7 |  |  |  |  |  | 9.7 | 1060 | 9.7 | Kd [25]: 5.9 nM |
| mAb1 MDQN (T256D/T307Q) (antibody) | 0.0013 | 13000 | 0.73 | 7.92 | 9.54 | 0.00127 | 133000 | 39.1 | 9.5 | 403000 | 39.1 | 10.7 | 0.087 | 380000 | 4.31e+06 | 0.0872 | 376000 | 10.7 | 600 | 10.7 | Kd [25]: 9.5 nM; koff [14]: 0.087 s⁻¹; kon [14]: 380000 M⁻¹ s⁻¹; Kd [18]: 232 nM; Kd [23]: 232 nM |
| mAb1 N434F (antibody) |  |  |  |  | 26 |  |  | 61.5 | 26 |  |  |  |  |  |  |  |  |  |  |  | enhancement of FcγRIIIa binding vs WT [4]: 16 to 40%; Steady State RU [9]: 54.9 RU |
| mAb1 MDWN (T256D/T307W) (antibody) | 0.0013 | 16000 | 0.89 | 7.92 | 8.24 | 0.00129 | 157000 | 42.1 | 8.2 | 485000 | 42.1 | 12.2 | 0.089 | 530000 | 5.92e+06 | 0.0892 | 529000 | 12.2 | 512 | 12.2 | Kd [25]: 8.2 nM; koff [14]: 0.089 s⁻¹; kon [14]: 530000 M⁻¹ s⁻¹; Ratio (pH 7.4/pH 6.0) [24]: 2.06e-06; Kd [18]: 169 nM; Kd [23]: 169 nM |
